The source of these data is patent US20250195685A1 (CAPSTAN THERAPEUTICS, published 2025).

The target of test [1] is T1, human CD8αα homodimer, recombinant protein (Acro Biosystems) (human, UniProt P01732 22-182).
T1 construct: also called CD8αα antigen; biotinylated CD8α recombinant protein (CDA-H82E3)
As to the kind of experiment: BLI kinetics, F(ab) on biotinylated CD8α (SA-XT sensor), 1:1 fit, 37 °C [CONT'ED]. The method, then: (§1) Biolayer interferometry kinetic assays were performed using a GatorBio Gator Plus BLI system. Kinetic buffer containing PBS plus 0.1% Tween 20 and 0.2% BSA was used for calculating the baseline. To measure the binding kinetics of anti-CD8α antibody fragment (Fab), streptavidin-immobilized SA-XT sensors (#160029, Gator Bio) were prehydrated in the kinetic buffer and loaded with […] biotinylated CD8α recombinant protein (CDA-H82E3, Acro Biosystems) at a spin speed of 400 rpm to a threshold response of 10 nm. The sensors were then incubated in the kinetic buffer for 300 s to acquire a baseline measurement prior to each association. […] The antigen-loaded sensors were incubated in the diluted solutions to capture Fab fragments for 300 s to record the association phase. Sensors were finally incubated in the kinetic buffer for 900 s to record the dissociation phase. The spin speed for all steps except the antigen loading step was 1000 rpm. The temperature of the performed assays was either 30° C. or 37° C. during the association and dissociation phases. Sensor data were baseline subtracted, and global curve fitting of the kinetic data from six different analyte concentrations at a 1:1 monovalent binding model was performed using GatorOne software (version v2.10) to determine kinetic rate constants (kₒₙ and koff) and equilibrium dissociation constants (KD) of the analyzed antibodies.

In test [2] the target is T1, human CD8αα homodimer, recombinant …. The test is described as follows: BLI kinetics, Fab, 37 °C. The method, then:
as §1
(§2) The binding kinetics of CBD1033 Fab and its parental CBD1017ch Fab against human CD8αα homodimer, human CD8αβ heterodimer, and cynomolgus macaque CD8ααhomodimer were assessed following the same method in BLI evaluation of humanized Fab variants. For evaluating the binding kinetics against cynomolgus macaque CD8αβ heterodimer protein, the antigen protein was directly coupled onto amine-reactive biosensor tips (Gator Bio) following the manufacturer protocol. Briefly, the sensors were activated for 300 s with a mixture of 1-ethyl-3-(3-dimethylaminopropyl)carbodiimide hydrochloride (EDC) (ThermoFisher Scientific) and 10 mM N-Hydroxysulfosuccinimide sodium salt (sulfo-NHS) (Sigma-Aldrich) in water.
(In general: In BLI a coated tip is dipped into the sample, and binding shifts an interference pattern.)

Test [3] has as its target human CD8αβ heterodimer, recombinant protein (human, UniProt P01732 22-182; P10966 22-170, limits assumed). The test is described as follows: BLI kinetics, Fab, 37 °C. The method, then: as §1, §2
For test [4], the target named is T2, cynomolgus macaque CD8αα homodimer, recombinant protein (cynomolgus macaque).
T2 construct: also called cynomolgus CD8αα homodimer
As to the kind of experiment: BLI kinetics, Fab, 37 °C as printed in the table. The method, then:
as §1, §2

Test [5] deals with T1, human CD8αα homodimer, recombinant …. The test is described as follows: BLI kinetics, F(ab) on biotinylated CD8α (SA-XT sensor), 1:1 fit, 30 °C. The method, then:
as §1

Test [6] deals with T3, cynomolgus macaque CD8αβ heterodimer, recombinant protein (cynomolgus macaque).
T3 construct: In BLI coupled directly to amine-reactive sensor tips; also called cynomolgus CD8αβ heterodimer
The test is described as follows: BLI kinetics, Fab, antigen amine-coupled to the sensor, 30 °C. The method, then:
The binding kinetics of CBD1033 Fab and its parental CBD1017ch Fab against human CD8αα homodimer, human CD8αβ heterodimer, and cynomolgus macaque CD8ααhomodimer were assessed following the same method in BLI evaluation of humanized Fab variants. For evaluating the binding kinetics against cynomolgus macaque CD8αβ heterodimer protein, the antigen protein was directly coupled onto amine-reactive biosensor tips (Gator Bio) following the manufacturer protocol. Briefly, the sensors were activated for 300 s with a mixture of 1-ethyl-3-(3-dimethylaminopropyl)carbodiimide hydrochloride (EDC) (ThermoFisher Scientific) and 10 mM N-Hydroxysulfosuccinimide sodium salt (sulfo-NHS) (Sigma-Aldrich) in water. The cynomolgus macaque CD8αβ protein diluted to […] in 10 mM sodium acetate buffer, pH 6.0, was allowed to be covalently captured for 300 s to an approximate threshold of 5 nm, and the sensors were subsequently deactivated with 1 M ethanolamine (ETA) (Sigma-Aldrich) solution, pH 8.5, for 300 s. The sensors were then rinsed in the kinetic buffer for 600 s. The rinse step was repeated for an additional 120 s for baseline calculation prior to the measurements of the binding kinetics. The antibody fragment was diluted into kinetic buffer via 3-fold dilution at concentrations ranging from 1000 nM to 1.37 nM. As above, the antigen-captured sensors were incubated in the diluted solutions to capture the Fab fragments for 1200 s to record the association phase. Sensors were subsequently incubated in the kinetic buffer for 1200 s to record the dissociation phase. The shaking speed for all steps was 1000 rpm and the temperature of the performed assays were at 30° C. The kinetic parameters were determined with 1:1 monovalent (Langmuir) binding model using the previous method.

Test [7] deals with T2, cynomolgus macaque CD8αα homodimer, …. The test is described as follows: BLI kinetic sensorgram, 1:1 global fit (legend: 30 °C; FIG. 2I prints 37 °C for the same constants). The method, then:
as §1, §2

The target of test [8] is T4, human CD8 on cells (CD8-overexpressing HEK293T cells, SupT1, HPB-ALL, human T cells, transfected HEK293 of … (human, UniProt P01732 22-235)).
T4 construct: whole, on cells; also called cell surface CD8
T4 sequence (P01732 22-235): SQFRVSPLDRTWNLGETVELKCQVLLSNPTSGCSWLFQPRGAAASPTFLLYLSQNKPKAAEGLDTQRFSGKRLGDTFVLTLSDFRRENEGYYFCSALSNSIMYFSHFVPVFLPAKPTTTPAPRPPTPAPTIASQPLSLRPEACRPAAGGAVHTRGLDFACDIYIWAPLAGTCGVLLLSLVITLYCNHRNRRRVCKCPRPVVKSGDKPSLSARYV
As to the kind of experiment: flow cytometry on CD8-overexpressing HEK293T cells, non-linear fit of normalized gMFI. The method, then:
To obtain the results shown in FIG. 3A, that determined EC₅₀ values for antigen-specific binding, CD8-overexpressing HEK293T cells were dissociated in Versine solution (PBS buffer at pH 7.4 supplemented with 0.5 mM EDTA), and 2×10⁵ total cells were transferred to a V-bottom 96 well culture plate (Corning). Cells were washed twice with Cell Staining buffer (#420201, Biolegend). Each anti-CD8α antibody with human IgG1 isotype and Fc-silencing mutations L234A, L235A and P329A was diluted in four-fold antibody titration series from 100 μg/mL to 6.1 ng/ml into Cell Staining buffer. eFluor 780 Fixable Viability dye (eBioscience) was also included during antibody solutions at a 1:4000 dilution. Cells were stained with each diluted antibody solution for 30 minutes on ice. Cells were then washed three times with Cell Staining buffer and primary antibody binding was detected by staining with anti-human Fc BV421 conjugate antibody (#410704, Biolegend) at 1:100 dilution for 30 minutes on ice. After staining with the secondary detection antibody, cells were washed three times with Cell Staining buffer, fixed in FluoroFix buffer (Biolegend) and kept at 4° C. in the dark until analysis. Flow cytometry analysis on each sample was performed on an Agilent NovoCyte flow cytometer. Flow cytometry data was analyzed by Flowjo 10 (Becton, Dickinson & Company) to measure the geometric median fluorescence intensity (gMFI) of the on-cell binding from each antibody. The gMFI values were normalized with the gMFI measured in the sample stained with only the secondary detection antibody and plotted against the concentration of the added antibodies. The binding curves were constructed using the Graphpad Prism software, and EC₅₀ values were determined by non-linear curve fitting.

The target of test [9] is T1, human CD8αα homodimer, recombinant …. As to the kind of experiment: BLI steady state, whole hIgG1-LALAPA antibody on CD8α-His (Ni-NTA sensor), 30 °C. The method, then: To assess affinity of whole antibodies, steady state analysis was used as the bivalent nature of both whole antibody and CD8α complicates kinetic analysis. 50 nM CD8α-His (that is, CD8α with a C-terminal oligohistidine tag; Acro) was immobilized on Ni-NTA sensor probes. Binding was analyzed with a three-fold antibody dilutions series: 60 nM, 20 nM, 6.67 nM, 2.22 nM, 0.74 nM, and 0.25 nM. The antigen-loaded sensors were incubated in the diluted solutions to capture the whole IgG antibody for 300 s to record the association phase. Sensors were incubated in the kinetic buffer for 900 s to record the dissociation phase. The spin speed was 1000 rpm for all steps except the antigen loading step which was 400 rpm to control density of the antigen. The temperature of the performed assays was at 30° C. during the association and dissociation phases. The sensor data were baseline subtracted and further analyzed in GatorOne software (version 2.10) to determine the equilibrium dissociation constants (KD) of the antibodies by fitting the signals of the steady states to the 1:1 binding model.

In test [10] the target is T5, custom recombinant human CD8α mouse IgG2a Fc fusion protein (human; mouse, UniProt P01732 22-182, limits assumed).
T5 construct: Custom protein; also called human CD8α mouse Fc fusion protein; not shown: mouse IgG2a Fc
T5 sequence (P01732 22-182 limits assumed): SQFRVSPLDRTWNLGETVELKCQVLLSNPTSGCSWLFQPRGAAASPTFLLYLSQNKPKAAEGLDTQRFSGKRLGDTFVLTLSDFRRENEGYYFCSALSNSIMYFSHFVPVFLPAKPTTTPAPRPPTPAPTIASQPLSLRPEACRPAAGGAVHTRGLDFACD
The test is described as follows: BLI kinetics, biotin-conjugated F(ab') on SA-XT sensor, HuCD8a mouse Fc fusion as analyte, 37 °C. The method, then:
The global fitting was performed with a 1:1 fitting model using GatorOne software as described below.
To measure the binding kinetics of the biotin-conjugated Fab molecule, streptavidin-immobilized SA-XT sensors (#160029, Gator Bio) were prehydrated in the kinetic buffer and loaded with […] biotinylated Fab sample CBD1033.37 or CBD1033.24 to a threshold response of 10 nm. […] The binder-loaded sensors were incubated in the diluted solutions to capture the CD8α protein for 1200 s to record the association phase. Sensors were finally incubated in the kinetic buffer for another 1200 s to record the dissociation phase. The spin speed for all steps was 1000 rpm. The temperature of the performed assays were at 37° C. during the association and dissociation. The sensor data were baseline subtracted, and global curve fitting of the kinetic data from six different analyte concentrations at a 1:1 monovalent binding model was performed using the GatorOne software (version v2.10) to determine the kinetic rate constants (kₒₙ and koff) and equilibrium dissociation constants (KD) of the analyzed binder.

Sequence of human CD8αβ heterodimer, recombinant protein (P01732 22-182 limits assumed, chain 1 of 2): as the sequence (P01732 22-182 limits assumed) above
Sequence of human CD8αβ heterodimer, recombinant protein (P10966 22-170 limits assumed, chain 2 of 2): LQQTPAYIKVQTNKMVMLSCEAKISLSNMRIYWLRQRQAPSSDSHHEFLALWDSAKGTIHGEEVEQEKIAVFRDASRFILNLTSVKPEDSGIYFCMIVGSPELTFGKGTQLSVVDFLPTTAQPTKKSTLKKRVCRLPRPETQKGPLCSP
T1 sequence (P01732 22-182 limits assumed): as the sequence (P01732 22-182 limits assumed) above

B1: CBD1017ch Fab (chimeric CT8 Fab) (Fab, V domains shown)
VH: EVQLQQSGPELVKPGASVKISCKASRYTFTDYNLHWVKLSHEKSLEWIGFIYPYNGGTGYNQKFKNKAKLTVDYSSSTAYMELRSLTSVDAAVYYCARDHRYNEGVSFDYWGQGTTLTVSS
VL: NIVLTQSPASLAVSLGQRATISCRASESVDGFGNSFMNWYQQKPGQSPKLLIYLASNLESGVPARFSGSGSRTDFTLTIDPVEADDAATYYCQQNNEDPYTFGGGTKLEIK
notes: Chimeric: variable regions of mouse CT8 (clone RPA-T8) with human constant parts; also called parental CBD1017ch Fab
One may read the Kd as the free concentration of one partner at which half of the binding sites on the other are occupied at equilibrium, for simple one-to-one binding. What is called koff is the first-order rate constant of dissociation. By kon is commonly meant the rate constant with which the complex forms. As to B1, the Kd in test [1] came out at 1.08 nM; in test [2], 1.08 nM; in test [3], 5.75 nM; in test [4], 2.26 nM; in [5], 0.814 nM; in test [6], 24.8 nM. For the same molecule, the Kd in [7] was 2.26 nM. Moreover, the koff in test [1] was found to be 7.53e-05 s⁻¹; in [2], 7.53e-05 s⁻¹; in [3], 0.000179 s⁻¹; in [4], 6.93e-05 s⁻¹; in [5], 5.67e-05 s⁻¹; in [6], 0.000503 s⁻¹. Further, the koff in [7] was 6.93e-05 s⁻¹. The kon in test [1] worked out at 69500 M⁻¹ s⁻¹; in test [2], 69500 M⁻¹ s⁻¹; in test [3], 31200 M⁻¹ s⁻¹; in [4], 30700 M⁻¹ s⁻¹; in [5] it was 69700 M⁻¹ s⁻¹; in [6], 20300 M⁻¹ s⁻¹. In addition, the kon in test [7] worked out at 30700 M⁻¹ s⁻¹.

B2: CBD1036-hIgG1-LALAPA (antibody, V domains shown)
VH: QVQLVQSGAEVKKPGASVKISCKASRYTFTDYNLHWVRQAPGQGLEWIGFIYPYNGGTGYAQKFQGRATLTVDTSTSTAYMELSSLRSEDTAVYYCARDHRYNEGVSFDYWGQGTTLTVSS
VL: DIQLTQSPSSLSASVGDRATITCRASESVDGFGNSFMNWYQQKPGKAPKLLIYLASNLESGVPSRFSGSGSRTDFTLTISSVQPEDFATYYCQQNNEDPYTFGQGTKLEIKR
notes: also called h1017-H3/L3 whole antibody
The term EC50 denotes the concentration needed to bring the measured effect to its halfway point. Higher therefore signals a less potent agent. In [8], B2 displayed an EC50 of 2.69 nM. Moreover, the Kd in [9] came to 5.15 nM.

B3: maleimide-PEG-biotin conjugated CBD1033.24 F(ab') (IgG4-derived) (Fab, V domains shown)
VH: QVQLVQSGAEVKKPGASVKVSCKASRYTFTDYNLHWVRQAPGQGLEWMGFIYPYNGGTGYAQKFQGRVTMTVDTSTSTAYMELSSLRSEDTAVYYCARDHRYNEGVSFDYWGQGTTVTVSS
VL: DIQLTQSPSSLSASVGDRATITCRASESVDGFGNSFMNWYQQKPGKAPKLLIYLASNLESGVPSRFSGSGSGTDFTLTISSVQPEDFATYYCQQNNEDPYTFGQGTKLEIKR
modifications: maleimide-PEG11-biotin on CH C227 (sequential numbering, corresponding to C239 in Kabat numbering)
notes: Loaded on streptavidin sensors through the biotin; also called biotinylated Fab sample CBD1033.24
For B3, in test [10], the Kd amounted to 4.01 nM, the koff came out at 0.00013 s⁻¹ and the kon came to 32400 M⁻¹ s⁻¹.

B4: CBD1038-hIgG1-LALAPA (antibody, V domains shown)
VH: QVQLVQSGAEVKKPGASVKVSCKASRYTFTDYNLHWVRQAPGQGLEWMGFIYPYNGGTGYAQKFQGRVTMTVDYSTSTAYMELSSLRSEDTAVYYCARDHRYNEGVSFDYWGQGTTVTVSS
VL: DIQLTQSPSSLSASVGDRATITCRASESVDGFGNSFMNWYQQKPGKAPKLLIYLASNLESGVPSRFSGSGSRTDFTLTISSVQPEDFATYYCQQNNEDPYTFGQGTKLEIKR
notes: also called h1017-H4/L3 whole antibody
Turning to B4, in test [8], the midpoint of the response, the EC50, lay at 2.57 nM. Besides, in [9], the Kd turned out to be 4.74 nM.

B5: CBD1037-hIgG1-LALAPA (antibody, V domains shown)
VH: QVQLVQSGAEVKKPGASVKVSCKASRYTFTDYNLHWVRQAPGQGLEWMGFIYPYNGGTGYAQKFQGRVTMTVDYSTSTAYMELSSLRSEDTAVYYCARDHRYNEGVSFDYWGQGTTVTVSS
VL: DIQLTQSPSSLSASVGDRATITCRASESVDGFGNSFMNWYQQKPGKAPKLLIYLASNLESGVPSRFSGSGSGTDFTLTISSVQPEDFATYYCQQNNEDPYTFGQGTKLEIKR
notes: also called h1017-H4/L2 whole antibody
Regarding B5, the EC50 in test [8] was 2.42 nM. For the same molecule, the Kd in test [9] amounted to 2.32 nM.
